* marks the point of attachment. C18 diacid = O=C(O)CCCCCCCCCCCCCCCCC(=O)*
T1: human calcitonin receptor (human, UniProt P30988 25-474)
T1 construct: whole, on cells; also called hCT-R; hCTR
T1 sequence (looked up): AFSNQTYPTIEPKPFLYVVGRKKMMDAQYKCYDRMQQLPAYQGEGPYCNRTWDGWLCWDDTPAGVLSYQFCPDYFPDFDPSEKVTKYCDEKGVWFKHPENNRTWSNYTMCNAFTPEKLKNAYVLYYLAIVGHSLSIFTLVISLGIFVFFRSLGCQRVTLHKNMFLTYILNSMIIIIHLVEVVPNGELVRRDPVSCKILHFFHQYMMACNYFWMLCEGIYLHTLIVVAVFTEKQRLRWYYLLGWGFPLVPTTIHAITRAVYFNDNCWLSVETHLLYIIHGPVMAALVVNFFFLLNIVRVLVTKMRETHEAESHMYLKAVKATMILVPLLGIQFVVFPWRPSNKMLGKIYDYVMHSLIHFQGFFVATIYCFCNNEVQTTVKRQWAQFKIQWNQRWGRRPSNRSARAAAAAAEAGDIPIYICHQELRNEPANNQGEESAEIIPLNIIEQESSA

B1: [N-terminal(C18 diacid), 5I]mimylin (peptide)
peptide: {C18 diacid}-EASEISTAALGRLSAELHELATLPRTETGPESP-NH2
SMILES: CC[C@H](C)[C@H](NC(=O)[C@H](CCC(=O)O)NC(=O)[C@H](CO)NC(=O)[C@H](C)NC(=O)[C@H](CCC(=O)O)NC(=O)CCCCCCCCCCCCCCCCC(=O)O)C(=O)N[C@@H](CO)C(=O)N[C@H](C(=O)N[C@@H](C)C(=O)N[C@@H](C)C(=O)N[C@@H](CC(C)C)C(=O)NCC(=O)N[C@@H](CCCNC(=N)N)C(=O)N[C@@H](CC(C)C)C(=O)N[C@@H](CO)C(=O)N[C@@H](C)C(=O)N[C@@H](CCC(=O)O)C(=O)N[C@@H](CC(C)C)C(=O)N[C@@H](Cc1c[nH]cn1)C(=O)N[C@@H](CCC(=O)O)C(=O)N[C@@H](CC(C)C)C(=O)N[C@@H](C)C(=O)N[C@H](C(=O)N[C@@H](CC(C)C)C(=O)N1CCC[C@H]1C(=O)N[C@@H](CCCNC(=N)N)C(=O)N[C@H](C(=O)N[C@@H](CCC(=O)O)C(=O)N[C@H](C(=O)NCC(=O)N1CCC[C@H]1C(=O)N[C@@H](CCC(=O)O)C(=O)N[C@@H](CO)C(=O)N1CCC[C@H]1C(N)=O)[C@@H](C)O)[C@@H](C)O)[C@@H](C)O)[C@@H](C)O
notes: also called Ex. #8
B2: [N-terminal(C18 diacid), 6H]mimylin (peptide)
peptide: {C18 diacid}-EASELHTAALGRLSAELHELATLPRTETGPESP-NH2
SMILES: CC(C)C[C@H](NC(=O)[C@H](C)NC(=O)[C@H](C)NC(=O)[C@@H](NC(=O)[C@H](Cc1c[nH]cn1)NC(=O)[C@H](CC(C)C)NC(=O)[C@H](CCC(=O)O)NC(=O)[C@H](CO)NC(=O)[C@H](C)NC(=O)[C@H](CCC(=O)O)NC(=O)CCCCCCCCCCCCCCCCC(=O)O)[C@@H](C)O)C(=O)NCC(=O)N[C@@H](CCCNC(=N)N)C(=O)N[C@@H](CC(C)C)C(=O)N[C@@H](CO)C(=O)N[C@@H](C)C(=O)N[C@@H](CCC(=O)O)C(=O)N[C@@H](CC(C)C)C(=O)N[C@@H](Cc1c[nH]cn1)C(=O)N[C@@H](CCC(=O)O)C(=O)N[C@@H](CC(C)C)C(=O)N[C@@H](C)C(=O)N[C@H](C(=O)N[C@@H](CC(C)C)C(=O)N1CCC[C@H]1C(=O)N[C@@H](CCCNC(=N)N)C(=O)N[C@H](C(=O)N[C@@H](CCC(=O)O)C(=O)N[C@H](C(=O)NCC(=O)N1CCC[C@H]1C(=O)N[C@@H](CCC(=O)O)C(=O)N[C@@H](CO)C(=O)N1CCC[C@H]1C(N)=O)[C@@H](C)O)[C@@H](C)O)[C@@H](C)O
notes: also called Ex. #16
B3: [N-terminal(C18 diacid), 5V, 9V]mimylin (peptide)
peptide: {C18 diacid}-EASEVSTAVLGRLSAELHELATLPRTETGPESP-NH2
SMILES: CC(C)C[C@H](NC(=O)[C@H](CCC(=O)O)NC(=O)[C@H](Cc1c[nH]cn1)NC(=O)[C@H](CC(C)C)NC(=O)[C@H](CCC(=O)O)NC(=O)[C@H](C)NC(=O)[C@H](CO)NC(=O)[C@H](CC(C)C)NC(=O)[C@H](CCCNC(=N)N)NC(=O)CNC(=O)[C@H](CC(C)C)NC(=O)[C@@H](NC(=O)[C@H](C)NC(=O)[C@@H](NC(=O)[C@H](CO)NC(=O)[C@@H](NC(=O)[C@H](CCC(=O)O)NC(=O)[C@H](CO)NC(=O)[C@H](C)NC(=O)[C@H](CCC(=O)O)NC(=O)CCCCCCCCCCCCCCCCC(=O)O)C(C)C)[C@@H](C)O)C(C)C)C(=O)N[C@@H](C)C(=O)N[C@H](C(=O)N[C@@H](CC(C)C)C(=O)N1CCC[C@H]1C(=O)N[C@@H](CCCNC(=N)N)C(=O)N[C@H](C(=O)N[C@@H](CCC(=O)O)C(=O)N[C@H](C(=O)NCC(=O)N1CCC[C@H]1C(=O)N[C@@H](CCC(=O)O)C(=O)N[C@@H](CO)C(=O)N1CCC[C@H]1C(N)=O)[C@@H](C)O)[C@@H](C)O)[C@@H](C)O
notes: also called Ex. #24

Target: T1, human calcitonin receptor
Test: whole-cell competition vs 125I-human calcitonin (Assay VIIa)
Protocol: The binding assay was performed using a BHK tk'ts 13 cell line was stably transfected with the human calcitonin receptor, and a CRE-responsive luciferase reporter gene.
The day before the assay the cells were Seeded into Poly-D-Lysin coated 384W Opaque White, BD BioCoat plates (10000 cells/well) and Incubated overnight at 37° C., 5% CO2, 95% humidity. […] The morning after, the plates were washed three times in HBSS (4° C.), and lyzed in Lysis buffer (0.1 M NaOH), 1% SDS. Scintillation cocktail (MicroScint40®) was added and the plates were shaken at 500 rpm for a short period. The plate was incubated at room temperature in the dark for 1 hour and Read on a TopCounter™ (Packard). The IC₅₀ was calculated using (one site binding competition analysis) GraphPad Prism5 as a measure of receptor affinity.

Row | Binder | IC50 [nM]
1 | B1 | 0.368
2 | B2 | 0.981
3 | B3 | 0.749
